{"source": "patent US20060121553A1", "about": "“Fluorogenic enzyme assay methods, kits and compositions using charge-balancers” (Applera Corporation, priority 2004, published 2006)", "key": {"[1]": {"assay": "Total charge of substrate molecule and charge-balance molecule", "type": "physicochemical", "from_the_text": "FIG. 6B illustrates an exemplary charge-balance molecule (i.e. C16ArgArgOOOArgArgIleTyrGlyArgPheNH2, wherein OOO represents the optional O-spacers) that can be used balance the charge of the substrate molecule illustrated in FIG. 6A. The substrate molecule illustrated in FIG. 6A comprises a fluorescent moiety containing a sulfonate anion with a charge of ^−2. The substrate molecule illustrated in FIG. 6A further comprises a substrate moiety comprising three glutamate residues, each with a −1 charge. Thus, the total negative charge of the substrate molecule illustrated in FIG. 6A is ^−5 at physiological pH. […] The total positive charge of the charge-balance molecule illustrated in FIG. 6B is ^+5 at pH 7.6. Thus, the net charge of the compound comprising the substrate molecule illustrated in FIG. 6A and the charge-balance molecule illustrated in FIG. 6B is approximately zero at pH 7.6."}, "[2]": {"molecular_target": "tyrosine kinase Lyn (Homo sapiens, UniProt P07948)", "sequence (P07948 whole entry)": "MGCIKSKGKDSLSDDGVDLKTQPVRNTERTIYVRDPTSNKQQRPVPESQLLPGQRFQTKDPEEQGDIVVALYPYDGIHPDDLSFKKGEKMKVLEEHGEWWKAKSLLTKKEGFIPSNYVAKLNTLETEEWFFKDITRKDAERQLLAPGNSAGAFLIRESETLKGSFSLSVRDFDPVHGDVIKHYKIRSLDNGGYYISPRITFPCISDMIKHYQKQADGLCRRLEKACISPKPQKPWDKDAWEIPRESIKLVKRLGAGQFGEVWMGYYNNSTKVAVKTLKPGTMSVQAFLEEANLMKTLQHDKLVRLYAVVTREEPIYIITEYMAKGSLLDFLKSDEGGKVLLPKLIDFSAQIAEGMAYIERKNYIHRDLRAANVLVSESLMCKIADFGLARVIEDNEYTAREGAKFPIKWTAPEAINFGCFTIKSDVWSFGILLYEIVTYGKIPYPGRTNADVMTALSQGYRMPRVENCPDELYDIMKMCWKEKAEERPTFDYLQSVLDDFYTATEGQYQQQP", "assay": "Detection of protein kinase activity (fluorogenic micelle assay)", "type": "biochemical", "conditions": "2 μM substrate molecule, 2 μM charge-balance molecule, 0 or 100 μM ATP, 5 nM Lyn; FIG. 8", "method": "Kinase assays were performed using Corning 384-well, black, non-binding surface (NBS), microwell plates. Fluorescence was read in real time using a Molecular Dynamics Gemini XS plate reader, with excitation and emission set at 500 and 550 respectively. The plate was read every minute for one hour at ambient temperature.\nConcentrations of the substrate molecule C16Lys(Dye 2)OOOGluGluIleTyrGlyGluPheNH2 and charge-balance molecule C16ArgArgOOOArgArgIleTyrGlyArg PheNH2 were determined by dilution of the purified peptides into dimethylformamide (200 µL) with 1 M NaOH (5 µL) and measuring the absorbance of 5-carboxy-2′,7′-dipyridyl-sulfonefluorescein (Dye2) at its absorbance maximum (548 nm). The extinction coefficient of Dye2 was assumed to be 80,000 cm1M-1.\nA reaction solution was prepared containing the substrate molecule C16Lys(Dye 2)OOOGluGluIleTyrGlyGluPheNH2 (2 μM), and charge-balance molecule C16ArgArgOOOArgArgIleTyrGlyArg PheNH2 (2 μM), 20 mM Tris buffer, pH 7.6, MgCl2 (5 mM), DTT (5 mM) and Lyn (5 nM). The solution was pipetted into wells of a 384-well plate ([…] per well). ATP (0 or 100 μM) was added to initiate the kinase reaction. The plate was read at 500 nm excitation, 550 nm emission, each minute for 1 hour."}, "[3]": {"tested_on": "T1, substrate molecule C16Lys(Dye 2)OOOGluGluIleTyrGlyGluPheNH2", "T1 sequence": "KEEIYGEF"}}, "note": "*: point of attachment. Palmitoyl = CCCCCCCCCCCCCCCC(=O)*; K(Dye 2) = not defined here; code O = not defined here"}
{"substance": "C16ArgArgOOOArgArgIleTyrGlyArgPheNH2 ({Palmitoyl-Arg-Arg-code O-code O-code O}-RRIYGRF-NH2; reading uncertain; also: printed as C16ArgArgOOOArgArgIleTyrGlyArgPheNH2) [charge-balance molecule balancing the charge of the substrate molecule; OOO = O-spacers]", "values": [{"measurement": "total positive charge", "setting": "[1]; pH 7.6", "value": "+5"}]}
{"substance": "C16Lys(Dye 2)OOOGluGluIleTyrGlyGluPheNH2 ({Palmitoyl-K(Dye 2)-code O-code O-code O}-EEIYGEF-NH2; reading uncertain; also: printed as C16Lys(Dye 2)OOOGluGluIleTyrGlyGluPheNH2) [substrate molecule for tyrosine kinase Lyn; OOO = O-spacers, Dye2 = 5-carboxy-2′,7′-dipyridyl-sulfonefluorescein]", "values": [{"measurement": "fluorescence change on addition of tyrosine kinase Lyn", "setting": "[2]", "value": "increase in fluorescence over time"}, {"measurement": "total negative charge", "setting": "[1]; physiological pH", "value": "−5"}]}
{"substance": "tyrosine kinase Lyn", "values": [{"measurement": "fluorescence over time (rate of the kinase reaction, 0 or 100 µM ATP)", "setting": "[3]", "value": "The addition of tyrosine kinase Lyn to the micelle comprising the substrate molecule and charge-balance molecule cause an increase in fluorescence over time."}]}
